Where no end group is shown, it is not given here.

Assay [1] concerns the target T1, integrin αvβ3 (Homo sapiens, UniProt P06756).
T1 chain 1: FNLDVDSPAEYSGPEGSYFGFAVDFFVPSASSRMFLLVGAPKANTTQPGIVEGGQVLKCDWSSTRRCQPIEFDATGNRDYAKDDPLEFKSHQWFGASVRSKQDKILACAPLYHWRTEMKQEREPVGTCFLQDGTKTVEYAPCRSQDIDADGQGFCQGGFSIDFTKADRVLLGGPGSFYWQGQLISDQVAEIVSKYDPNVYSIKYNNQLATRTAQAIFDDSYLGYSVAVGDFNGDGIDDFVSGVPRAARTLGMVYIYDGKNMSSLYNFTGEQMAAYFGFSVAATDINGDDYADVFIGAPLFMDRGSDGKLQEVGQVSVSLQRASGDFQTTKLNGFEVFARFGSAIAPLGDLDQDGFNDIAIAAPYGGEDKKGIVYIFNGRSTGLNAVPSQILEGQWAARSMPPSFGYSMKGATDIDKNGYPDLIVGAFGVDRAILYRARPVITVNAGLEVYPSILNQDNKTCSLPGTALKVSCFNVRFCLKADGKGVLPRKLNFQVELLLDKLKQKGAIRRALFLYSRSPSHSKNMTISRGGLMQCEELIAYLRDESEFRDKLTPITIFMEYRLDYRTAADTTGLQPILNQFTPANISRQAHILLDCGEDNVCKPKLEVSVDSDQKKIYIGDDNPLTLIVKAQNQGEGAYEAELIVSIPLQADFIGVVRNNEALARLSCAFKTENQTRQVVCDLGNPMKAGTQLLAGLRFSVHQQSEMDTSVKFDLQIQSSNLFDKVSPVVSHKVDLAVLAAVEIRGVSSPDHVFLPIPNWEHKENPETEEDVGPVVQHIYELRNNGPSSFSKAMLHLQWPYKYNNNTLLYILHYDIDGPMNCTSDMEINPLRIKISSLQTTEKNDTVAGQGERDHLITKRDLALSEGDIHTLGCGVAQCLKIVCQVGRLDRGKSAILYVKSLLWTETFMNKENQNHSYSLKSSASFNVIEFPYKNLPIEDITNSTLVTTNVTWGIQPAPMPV
T1 chain 2: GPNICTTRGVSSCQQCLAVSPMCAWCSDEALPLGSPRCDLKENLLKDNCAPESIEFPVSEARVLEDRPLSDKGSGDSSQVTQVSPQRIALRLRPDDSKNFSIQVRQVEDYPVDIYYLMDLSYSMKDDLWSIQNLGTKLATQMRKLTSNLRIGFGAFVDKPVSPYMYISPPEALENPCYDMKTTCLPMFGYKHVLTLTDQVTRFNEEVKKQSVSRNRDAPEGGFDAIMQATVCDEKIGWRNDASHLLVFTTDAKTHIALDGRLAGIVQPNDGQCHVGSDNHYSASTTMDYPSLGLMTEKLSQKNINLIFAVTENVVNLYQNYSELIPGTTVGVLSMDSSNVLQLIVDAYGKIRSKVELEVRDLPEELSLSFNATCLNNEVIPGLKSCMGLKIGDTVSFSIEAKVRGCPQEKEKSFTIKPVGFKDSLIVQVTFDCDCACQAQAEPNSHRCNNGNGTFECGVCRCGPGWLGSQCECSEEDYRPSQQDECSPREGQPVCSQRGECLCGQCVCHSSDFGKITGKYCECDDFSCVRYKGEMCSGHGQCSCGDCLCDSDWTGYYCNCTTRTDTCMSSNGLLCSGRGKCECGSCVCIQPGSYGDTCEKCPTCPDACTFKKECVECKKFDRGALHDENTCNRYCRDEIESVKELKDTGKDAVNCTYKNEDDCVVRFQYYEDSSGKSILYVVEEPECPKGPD
As to the kind of experiment: competitive solid-phase binding assay with biotinylated vitronectin.

The target in assay [2] is T2, integrin αvβ5 (Homo sapiens, UniProt P06756).
T2 chain 1: T1 chain 1
T2 chain 2: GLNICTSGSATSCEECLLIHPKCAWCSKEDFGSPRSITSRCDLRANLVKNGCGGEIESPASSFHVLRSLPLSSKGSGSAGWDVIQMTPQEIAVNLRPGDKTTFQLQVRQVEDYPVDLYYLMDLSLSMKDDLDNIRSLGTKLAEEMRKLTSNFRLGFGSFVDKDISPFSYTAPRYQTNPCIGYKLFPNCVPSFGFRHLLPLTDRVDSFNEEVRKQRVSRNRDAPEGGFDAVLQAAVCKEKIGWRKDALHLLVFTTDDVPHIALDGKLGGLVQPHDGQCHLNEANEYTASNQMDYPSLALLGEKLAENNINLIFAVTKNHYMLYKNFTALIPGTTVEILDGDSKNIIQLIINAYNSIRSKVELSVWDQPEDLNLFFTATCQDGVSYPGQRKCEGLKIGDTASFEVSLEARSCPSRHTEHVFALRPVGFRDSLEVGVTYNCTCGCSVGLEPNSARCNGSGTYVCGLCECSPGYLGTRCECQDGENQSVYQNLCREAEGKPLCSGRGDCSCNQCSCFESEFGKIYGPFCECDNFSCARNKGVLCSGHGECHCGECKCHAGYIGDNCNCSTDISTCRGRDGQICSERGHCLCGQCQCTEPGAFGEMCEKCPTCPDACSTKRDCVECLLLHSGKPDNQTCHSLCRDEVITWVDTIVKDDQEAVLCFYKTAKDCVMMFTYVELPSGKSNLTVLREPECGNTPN
The assay is described as above.

Assay [3] deals with integrin αIIbβ3 (Homo sapiens, UniProt P08514). As to the kind of experiment: competitive solid-phase binding assay with biotinylated fibronectin.

A word on the IC50: it is the concentration needed to halve the response being measured. High values mean weaker potency in that assay, low ones greater potency in that assay. GRGDS (not fully specified) [GRGDS-CNP 10% (14 peptides per CNP)] gave an IC50 in assay [1] of 12.5 nM.
The same measure, in the same setting: the same measure for GRGDS (not fully specified) [GRGDS-CNP 50% (70 peptides per CNP)]: 1.08 nM.
Still for that read-out and setting: the result for GRGDS (not fully specified) [GRGDS-CNP 20% (28 peptides per CNP)] reads 5.21 nM.
For GRGDS (not fully specified) [GRGDS-CNP 5% (7 peptides per CNP)], the IC50 is 78.5 nM in assay [1], over 1000 nM in assay [2] and over 1000 nM in assay [3].

Values taken from paper PMC3043165 (2011).
